The values that follow come from patent US20200079855A1 (Pfizer, published 2020).

Assay [1] deals with T1, human αvβ8 integrin on U251 cells (human, UniProt P06756 31-1048). Put plainly: cell-based or functional assay.
The target of assay [2] is T2, recombinant human αvβ6 integrin (human, UniProt P06756 31-992; P18564 22-707).
T2 construct: Used in ELISA and immobilised on the Biacore chip; construct not described; also called hαvβ6; AVB6
Put plainly: ELISA (title Specificity Binding ELISA), absorbance 450 nm against [mAb] (nM).

The target of assay [3] is T3, recombinant human αvβ3 integrin (human, UniProt P06756 31-992; P05106 27-718).
T3 construct: Used in ELISA and immobilised on the Biacore chip; construct not described; also called hαvβ3; AVB3
T3 sequence (P05106 27-718 limits assumed, one chain of several): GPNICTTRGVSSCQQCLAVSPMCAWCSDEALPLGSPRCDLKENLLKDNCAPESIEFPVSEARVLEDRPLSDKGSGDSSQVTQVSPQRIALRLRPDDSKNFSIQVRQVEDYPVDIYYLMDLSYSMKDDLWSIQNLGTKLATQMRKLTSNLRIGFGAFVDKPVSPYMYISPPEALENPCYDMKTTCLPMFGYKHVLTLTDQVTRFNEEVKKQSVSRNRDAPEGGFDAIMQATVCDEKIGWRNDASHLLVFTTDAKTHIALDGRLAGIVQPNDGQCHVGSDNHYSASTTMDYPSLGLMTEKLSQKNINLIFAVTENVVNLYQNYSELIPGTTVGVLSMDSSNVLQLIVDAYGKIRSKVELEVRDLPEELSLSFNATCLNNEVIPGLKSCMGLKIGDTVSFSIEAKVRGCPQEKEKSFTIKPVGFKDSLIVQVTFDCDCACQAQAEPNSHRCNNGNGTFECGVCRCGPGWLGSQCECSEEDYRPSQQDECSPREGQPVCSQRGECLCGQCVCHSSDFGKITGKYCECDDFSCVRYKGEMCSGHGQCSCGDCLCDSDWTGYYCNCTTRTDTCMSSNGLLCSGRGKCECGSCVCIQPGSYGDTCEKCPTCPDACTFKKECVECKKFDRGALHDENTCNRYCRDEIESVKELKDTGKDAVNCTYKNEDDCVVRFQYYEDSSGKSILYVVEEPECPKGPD
Described as above.

Assay [4] addresses recombinant human αvβ8 integrin (human) (UniProt P06756). Put plainly: ELISA on human αvβ8 (legend box: human avb8), mAb titration.
The target is the same in assay [5]. Put plainly: SPR (Biacore), Fab over immobilised recombinant αvβ8; the upper end is the human value of Tables 3 and 6.
Assay [6] concerns the target T1, human αvβ8 integrin on U251 cells. Put plainly: cell-based or functional assay. This is another data set of the same source.
Assay [7] concerns the target T2, recombinant human αvβ6 integrin. Put plainly: SPR (Biacore).
The target of assay [8] is T3, recombinant human αvβ3 integrin. Put plainly: SPR (Biacore).
Assay [9] addresses T4, recombinant mouse αvβ8 integrin (mouse, UniProt P43406 31-988; Q0VBD0 22-681, limits assumed).
T4 construct: Recombinant protein immobilised on the Biacore chip
Put plainly: SPR (Biacore T200), Fab over biotinylated recombinant αvβ8 on streptavidin chip, n>=3. On the procedure: (§1) More specifically, recombinant αvβ8 integrin (e.g., R&D Systems) was biotin labeled via primary amines and immobilized on a Sensor Chip SA using a Biacore™ T200 instrument (GE Healthcare Life Sciences). Fab binding experiments were performed at 25° C. using a 30 μl/min flow rate in 0.01 M HEPES pH 7.4, 0.15 M NaCl, 1-2 mM MgCl₂, and 0.005% v/v surfactant P20 (HBS-P) buffer. Association was monitored for 5-10 minutes and dissociation for a further 15-20 minutes for each Fab concentration. After each injection, the chip surface was regenerated with IgG elution buffer (Thermo Fisher Scientific). All data was analyzed using the Biacore™ T200 Evaluation software. Data was dual background subtracted using the adjacent flow cell coupled with streptavidin without captured integrin, and buffer only injections. Kinetic constants for at least three experiments were obtained and reported as the mean.
(§2) To evaluate the monomeric KD of the Fab ADWA11 2.4, also referred to herein as ADWA-11 VH05-2/VK01(2.4) and ADWA11 5-2 2.4, and the parental mouse IgG, recombinant human, cynomolgus, mouse, and rat αvβ8 was immobilized on a Biacore chip and the ka and kd of the Fabs were determined as generally described herein (Table 6).

For assay [10], the target named is T5, recombinant cynomolgus monkey αvβ8 integrin (cynomolgus monkey, limits assumed).
T5 construct: Recombinant protein immobilised on the Biacore chip; also called cyno αvβ8; cynomolgus αvβ8
T5 chain 1: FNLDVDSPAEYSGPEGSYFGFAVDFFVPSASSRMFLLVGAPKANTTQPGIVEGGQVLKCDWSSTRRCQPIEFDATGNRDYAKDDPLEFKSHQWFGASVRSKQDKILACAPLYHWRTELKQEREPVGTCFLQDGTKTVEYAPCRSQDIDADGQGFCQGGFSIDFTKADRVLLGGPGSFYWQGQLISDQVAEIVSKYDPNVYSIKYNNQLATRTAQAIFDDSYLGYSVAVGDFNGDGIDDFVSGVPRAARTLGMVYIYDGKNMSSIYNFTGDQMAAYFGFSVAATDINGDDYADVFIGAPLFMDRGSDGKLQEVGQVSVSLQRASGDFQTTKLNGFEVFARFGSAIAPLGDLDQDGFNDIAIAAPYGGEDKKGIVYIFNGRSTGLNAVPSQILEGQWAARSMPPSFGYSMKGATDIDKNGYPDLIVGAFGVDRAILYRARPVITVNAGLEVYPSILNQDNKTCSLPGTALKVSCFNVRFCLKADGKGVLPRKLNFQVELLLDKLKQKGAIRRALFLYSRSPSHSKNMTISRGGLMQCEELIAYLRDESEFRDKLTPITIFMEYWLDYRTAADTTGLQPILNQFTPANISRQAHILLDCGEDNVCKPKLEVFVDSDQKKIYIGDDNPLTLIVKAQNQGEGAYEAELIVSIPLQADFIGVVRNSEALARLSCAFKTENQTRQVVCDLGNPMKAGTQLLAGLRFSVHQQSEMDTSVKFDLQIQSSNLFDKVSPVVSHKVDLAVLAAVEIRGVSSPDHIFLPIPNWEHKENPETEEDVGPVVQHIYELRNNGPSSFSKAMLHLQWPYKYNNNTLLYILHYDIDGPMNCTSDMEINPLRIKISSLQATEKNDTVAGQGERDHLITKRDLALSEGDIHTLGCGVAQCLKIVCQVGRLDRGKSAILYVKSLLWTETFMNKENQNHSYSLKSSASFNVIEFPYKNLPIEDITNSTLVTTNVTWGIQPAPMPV
T5 chain 2: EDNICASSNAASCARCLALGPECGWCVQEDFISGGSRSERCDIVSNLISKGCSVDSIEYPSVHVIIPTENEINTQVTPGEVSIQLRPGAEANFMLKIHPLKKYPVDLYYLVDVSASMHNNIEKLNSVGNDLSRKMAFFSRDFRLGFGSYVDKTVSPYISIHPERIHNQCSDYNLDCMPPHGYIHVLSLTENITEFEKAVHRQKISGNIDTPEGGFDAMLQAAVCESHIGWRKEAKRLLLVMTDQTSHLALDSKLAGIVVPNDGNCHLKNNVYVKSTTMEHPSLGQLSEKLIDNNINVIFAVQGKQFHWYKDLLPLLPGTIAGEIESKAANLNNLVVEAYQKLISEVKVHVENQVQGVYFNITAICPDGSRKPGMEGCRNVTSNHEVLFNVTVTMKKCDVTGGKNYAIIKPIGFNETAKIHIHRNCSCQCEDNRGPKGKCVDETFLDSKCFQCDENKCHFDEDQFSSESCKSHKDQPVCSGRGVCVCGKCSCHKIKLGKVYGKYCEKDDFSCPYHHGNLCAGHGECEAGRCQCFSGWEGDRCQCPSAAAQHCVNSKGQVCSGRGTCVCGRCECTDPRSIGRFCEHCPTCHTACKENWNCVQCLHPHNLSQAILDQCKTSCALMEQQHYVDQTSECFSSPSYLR
Described as above. The protocol:
as §1, §2

Assay [11] concerns the target recombinant human αvβ8 integrin (human) (UniProt P06756). The assay is described as above.
Assay [12] has the same target. Put plainly: SPR (Biacore), Fab affinity of Table 3.
For assay [13] the target is unchanged. Put plainly: SPR (Biacore), additional experiments.
Assay [14] concerns the target T6, recombinant rat αvβ8 integrin (rat, UniProt F1LZX9 31-987; A0A0G2JVU1 43-682).
T6 construct: Recombinant protein immobilised on the Biacore chip
Put plainly: SPR (Biacore T200), Fab over biotinylated recombinant αvβ8 on streptavidin chip, n>=3. On the procedure: as §1, §2

For assay [15], the target named is T1, human αvβ8 integrin on U251 cells. Put plainly: flow cytometry, Fab binding to fixed U251 cells (MFI APC-A); EC50 unit inferred, axis Log10 [Ab] (nM).
The target of assay [16] is T4, recombinant mouse αvβ8 integrin. Put plainly: SPR (Biacore), additional experiments. On the procedure: as §1
In assay [17] the target is T5, recombinant cynomolgus monkey αvβ8 …. Put plainly: SPR (Biacore), additional experiments. The protocol: as §1

T2 sequence (P18564 22-707 limits assumed, one chain of several): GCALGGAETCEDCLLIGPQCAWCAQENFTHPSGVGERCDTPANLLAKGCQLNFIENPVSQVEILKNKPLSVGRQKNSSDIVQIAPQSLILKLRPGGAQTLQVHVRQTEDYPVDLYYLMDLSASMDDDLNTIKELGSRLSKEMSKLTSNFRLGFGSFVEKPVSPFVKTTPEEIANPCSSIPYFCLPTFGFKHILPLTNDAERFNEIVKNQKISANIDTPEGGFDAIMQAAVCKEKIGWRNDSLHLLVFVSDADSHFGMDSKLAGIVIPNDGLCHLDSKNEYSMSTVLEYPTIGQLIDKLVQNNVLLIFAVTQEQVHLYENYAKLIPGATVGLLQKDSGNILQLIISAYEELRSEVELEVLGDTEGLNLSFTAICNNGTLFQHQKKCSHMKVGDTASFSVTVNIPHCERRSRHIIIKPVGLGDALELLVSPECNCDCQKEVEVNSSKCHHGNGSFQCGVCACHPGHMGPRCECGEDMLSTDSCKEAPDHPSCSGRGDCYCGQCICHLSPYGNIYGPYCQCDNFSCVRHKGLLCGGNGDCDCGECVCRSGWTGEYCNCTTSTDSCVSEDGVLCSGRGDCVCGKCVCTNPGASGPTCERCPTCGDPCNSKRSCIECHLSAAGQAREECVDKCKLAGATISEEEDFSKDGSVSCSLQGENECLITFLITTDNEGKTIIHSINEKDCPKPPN
T4 sequence (P43406 31-988 limits assumed, chain 1 of 2): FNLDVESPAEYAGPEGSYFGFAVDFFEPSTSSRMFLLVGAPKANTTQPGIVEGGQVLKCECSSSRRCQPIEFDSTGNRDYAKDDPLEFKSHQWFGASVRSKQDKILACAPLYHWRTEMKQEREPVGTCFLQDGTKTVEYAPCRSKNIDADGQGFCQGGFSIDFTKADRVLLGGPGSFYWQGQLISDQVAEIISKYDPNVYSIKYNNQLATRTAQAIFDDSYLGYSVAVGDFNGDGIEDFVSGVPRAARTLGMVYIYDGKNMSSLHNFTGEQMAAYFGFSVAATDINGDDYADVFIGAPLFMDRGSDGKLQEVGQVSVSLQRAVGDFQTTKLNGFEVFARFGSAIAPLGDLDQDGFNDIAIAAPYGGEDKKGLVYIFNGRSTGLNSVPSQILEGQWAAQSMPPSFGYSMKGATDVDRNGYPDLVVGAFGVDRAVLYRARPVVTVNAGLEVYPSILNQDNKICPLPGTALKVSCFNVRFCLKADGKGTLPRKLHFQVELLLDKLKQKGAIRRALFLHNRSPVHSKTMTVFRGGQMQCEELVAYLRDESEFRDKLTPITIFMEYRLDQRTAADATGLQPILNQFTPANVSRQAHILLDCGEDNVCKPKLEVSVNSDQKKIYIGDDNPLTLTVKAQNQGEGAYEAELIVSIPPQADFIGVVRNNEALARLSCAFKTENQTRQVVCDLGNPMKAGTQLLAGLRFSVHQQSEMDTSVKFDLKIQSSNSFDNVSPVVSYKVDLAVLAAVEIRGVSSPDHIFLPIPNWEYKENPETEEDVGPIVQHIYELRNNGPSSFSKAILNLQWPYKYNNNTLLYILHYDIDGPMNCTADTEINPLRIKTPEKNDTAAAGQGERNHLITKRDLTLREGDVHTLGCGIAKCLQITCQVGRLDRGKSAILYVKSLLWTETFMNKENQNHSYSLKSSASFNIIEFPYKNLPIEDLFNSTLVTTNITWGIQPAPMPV
T4 sequence (Q0VBD0 22-681 limits assumed, chain 2 of 2): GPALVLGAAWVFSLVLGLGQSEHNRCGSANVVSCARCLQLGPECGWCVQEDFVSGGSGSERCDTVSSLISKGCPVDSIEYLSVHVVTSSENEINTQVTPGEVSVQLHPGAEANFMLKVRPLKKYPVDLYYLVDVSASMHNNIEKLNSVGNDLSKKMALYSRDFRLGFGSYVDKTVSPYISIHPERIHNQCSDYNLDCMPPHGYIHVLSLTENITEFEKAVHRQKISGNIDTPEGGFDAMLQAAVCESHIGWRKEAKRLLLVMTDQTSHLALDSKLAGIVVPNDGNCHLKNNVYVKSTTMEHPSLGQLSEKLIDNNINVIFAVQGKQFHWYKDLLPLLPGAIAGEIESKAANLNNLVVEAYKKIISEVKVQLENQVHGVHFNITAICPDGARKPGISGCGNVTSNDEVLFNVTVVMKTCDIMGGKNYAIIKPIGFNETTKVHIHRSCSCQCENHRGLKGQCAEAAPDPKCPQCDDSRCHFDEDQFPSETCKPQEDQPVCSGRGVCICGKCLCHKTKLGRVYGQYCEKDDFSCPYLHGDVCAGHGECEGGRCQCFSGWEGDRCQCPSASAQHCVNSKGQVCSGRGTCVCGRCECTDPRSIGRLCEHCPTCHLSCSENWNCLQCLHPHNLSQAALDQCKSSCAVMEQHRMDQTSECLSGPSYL

B1: Mouse hybridoma antibody ADWA-11 (antibody, V domains shown)
VH: EVQLQQSGAELVRPGAFVKLSCKASGFNIKDYYMNWVLQRPEQGLEWIGWIDPDNGNTIYDPKFQGKASITADTSSNTAYLQLSSLTSEDTAVYYCARRLLMDYWGQGTSVTVSS
VL: DIVMTQAAPSVPVTPGESVSISCRSTKSLLHFNGNTYLFWFLQRPGQSPQRLIYYMSNLASGVPDRFSGRGSGTDFTLRISRVEAEDVGVYYCMQSLEYPFTFGTGTKLEIK
notes: Whole native murine IgG from the hybridoma; also called mADWA11; mADWA-11
In [1], B1 registered an IgG Potency TGFB Assay IC50 (pM) of 183 pM. Moreover, the binding result in assay [2] and in [3] was “no binding (tested: about 500 nM)” throughout. In [4], the EC50 (read off the curve) came to 300 pM.

B2: Mouse hybridoma ADWA-11 Fab (Fab, V domains shown)
VH: EVQLQQSGAELVRPGAFVKLSCKASGFNIKDYYMNWVLQRPEQGLEWIGWIDPDNGNTIYDPKFQGKASITADTSSNTAYLQLSSLTSEDTAVYYCARRLLMDYWGQGTSVTVSS
VL: DIVMTQAAPSVPVTPGESVSISCRSTKSLLHFNGNTYLFWFLQRPGQSPQRLIYYMSNLASGVPDRFSGRGSGTDFTLRISRVEAEDVGVYYCMQSLEYPFTFGTGTKLEIK
notes: Fab; also called mFab; Ms ADWA11 Fab
Consider B2, for which the Kd in [5] is 489 to 536 pM; in assay [9] it was 489 pM; in [10], 507 pM; in [11], 536 pM; in assay [12], 536 pM. Moreover, in assay [6], the “EC50 value measured by apparent affinity in the TGF-β transactivation assay” value worked out at 4600 pM. Also, the binding result in assay [7] and in [8] was “no binding” in each case. Also, the koff was determined as 5.03e-05 s⁻¹ in assay [9], 4.97e-05 s⁻¹ in [10] and 4.86e-05 s⁻¹ in [11]. Moreover, the kon in [9] turned out to be 103000 M⁻¹ s⁻¹; in [10] it was 98100 M⁻¹ s⁻¹; in assay [11] it was 92200 M⁻¹ s⁻¹; in [12] it was 92200 M⁻¹ s⁻¹.

B3: ADWA11 2.4 Fab (Fab, V domains shown)
VH: EVQLVESGGGLVQPGGSLRLSCAASGFNIKDYYMNWVRQAPGKGLEWVGWIDPDQGNTIYEPKFQGRFTISADTSKNSAYLQMNSLRAEDTAVYYCARRLLMDYWGQGTLVTVSS
VL: DIQMTQSPSSLSASVGDRVTITCRSTKSLSHFNGNTYLFWYQQKPGKAPKRLIYYMSSLASGVPSRFSGSGSGTDFTLTISSLQPEDFATYYCQQSLEYPFTFGGGTKVEIK
notes: Fab; also called ADWA11 5-2 2.4; ADWA11_5-2 2.4 Fab
For the molecule B3, the Kd in assay [13] was below 100 pM; in assay [14] it was at most 200 pM; in assay [9], at most 200 pM; in assay [10], at most 200 pM; in assay [11] it was below 200 pM; in assay [16], 70.8 pM. Moreover, in assay [17], the Kd is below 100 pM. The binding result in [7] and in [8] was “no binding” throughout. Also, the koff was at most 2e-05 s⁻¹ in [14], 1.82e-05 s⁻¹ in [9], at most 2e-05 s⁻¹ in assay [10] and below 3e-05 s⁻¹ in [11]. The kon in assay [14] was 341000 M⁻¹ s⁻¹; in assay [9] it was 257000 M⁻¹ s⁻¹; in assay [10], 172000 M⁻¹ s⁻¹; in assay [11], 161000 M⁻¹ s⁻¹. The molecule further registered an EC50 in assay [15] of 206 pM.
